From paper PMC3273813 (Nucleic Acids Research, 2011)

Target: T1, PfSir2A (Plasmodium falciparum Sir2), GST fusion (Plasmodium falciparum, UniProt Q8IE47 1-273)
T1 sequence (looked up): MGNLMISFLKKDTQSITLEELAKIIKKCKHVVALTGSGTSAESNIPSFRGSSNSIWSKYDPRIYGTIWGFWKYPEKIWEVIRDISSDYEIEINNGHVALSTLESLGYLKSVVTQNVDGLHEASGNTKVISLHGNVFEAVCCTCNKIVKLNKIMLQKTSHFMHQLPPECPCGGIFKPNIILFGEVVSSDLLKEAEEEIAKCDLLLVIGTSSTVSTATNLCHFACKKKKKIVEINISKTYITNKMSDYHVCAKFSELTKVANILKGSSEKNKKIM
Experiment: pull-down

B1: PfAlba3 (Plasmodium falciparum Alba 3), His-tag fusion protein (natural protein, UniProt Q8IJX8 1-107, looked up)
chain: MASTEEVSQERSENSIQVSMTKKPTFYARIGKRMFTGNEEKNPFDEVIITGLGNATKIAIGAASIMEKEDIGQIVKVQTAYFSSDRINRRIPKITIVLKKHPDFVAN
Q: Does B1 bind?
A: binds
